According to paper PMC6386500 (PLoS ONE, 2019):
Values belong to the molecule of their own block, whether it stands above or below them.

What was measured:
[1] = target: Citrate synthase from Metallosphaera sedula (Metallosphaera sedula); experiment: SEC; HiPrep 26/60 Sephacryl S-300 HR column, buffer A (40 mM Tris-HCl, pH 8.0), 277 K; eluted at approximately 85 kDa
[2] = target: T1, MsCS (citrate synthase from Metallosphaera sedula) (Metallosphaera sedula, UniProt A4YGX6); experiment: DTNB absorbance at […] nm, inhibition kinetics; format: biochemical
T1 construct: gene Msed_1522; C-terminal 6xHis tag (pET-30a, NdeI/XhoI), E. coli BL21(DE3)-T1R; homodimer about 85 kDa; modelled domains Met1-Arg370; His214, His253, Asp307 catalytic

purified protein [3] = substrate: CC(=O)SCCNC(=O)CCNC(=O)[C@H](O)C(C)(C)COP(=O)(O)OP(=O)(O)OC[C@H]1O[C@@H](n2cnc3c(N)ncnc32)[C@H](O)[C@@H]1OP(=O)(O)O; experiment: purified protein; format: biochemical, Metallosphaera sedula; settings: 100 mM potassium phosphate pH 8.0, 150 mM NaCl, 50 uM DTNB, 298 K, oxaloacetate concentration not stated, no inhibitor, 25.0 °C
purified protein [4] = substrate: O=C(O)CC(=O)C(=O)O; experiment: purified protein; format: biochemical, Metallosphaera sedula; settings: 0.5 mM acetyl-CoA, 100 mM potassium phosphate pH 8.0, 150 mM NaCl, 50 uM DTNB, 298 K, no inhibitor, 25.0 °C

Molecule: Nc1ncnc2c1ncn2[C@@H]1O[C@H](COP(=O)(O)OP(=O)(O)OP(=O)(O)O)[C@@H](O)[C@H]1O [ATP]
Ki [2]: 4.34 mM

B1: MsCS (citrate synthase from Metallosphaera sedula) (Metallosphaera sedula DSM 5348) (protein)
chain: MELRKGLEDIAIKETSITYIDGELGRLYYRGYSIFDLASFSNFEEVAYLLWYGKLPTRHELDDFKSRLAEERSISEDISTFVKRTAKFGNPMDILRTTVSMMGLEDRSEGDLIGKAIKMTAKIPTIISLIQRTRRNQEFVEPDPSLSHSENFLYMIRGERPSPSDTRVLDVSLMLHMDHEMNASTMACLVVASTLSDIYSSVVAGISALKGPLHGGANSEALKQFMEIETPDNVEKYVMNKLSSGQRLMGFGHRIYKTMDPRAKILKEYANQLSKNEEIKRLFEIANRVEEIGIKILGKRGIYPNVDFYSGLVFYAMGFDPDLFPTIFASARVIGWTAHVDEYLKDNKLIRPKAIYVGDLGKRYVPIEER
notes: C-terminal 6xHis tag (pET-30a, NdeI/XhoI), E. coli BL21(DE3)-T1R; homodimer about 85 kDa; modelled domains Met1-Arg370; His214, His253, Asp307 catalytic
Km (purified protein [3]): 16.5 µM
kcat (purified protein [3]): 8.56 s⁻¹
kcat/Km (purified protein [3]): 519000 M⁻¹ s⁻¹
Km (purified protein [4]): 41.4 µM
kcat (purified protein [4]): 7.62 s⁻¹

The next lines start with the values.

stoichiometry N [1]: 2
Molecule: Citrate synthase from Metallosphaera sedula (enzyme)

Ki [2]: 4.41 mM
Molecule: NC(=O)C1=CN([C@@H]2O[C@H](COP(=O)(O)OP(=O)(O)OC[C@H]3O[C@@H](n4cnc5c(N)ncnc54)[C@H](O)[C@@H]3O)[C@@H](O)[C@H]2O)C=CC1 [NADH]
